Experimental findings from PMC2886305 (Molecular cell, 2010) are described below.

Where no end group is shown, it is not given here.

In series [1] the test system is CBX7 chromodomain (CBX7CD). Description: fluorescence anisotropy. The conditions noted are these: not given in material (buffer, salt, pH and temperature in supplement).
For series [2], the target named is H3K9me3 peptide of the fluorescence anisotropy assay. Kind of series: fluorescence polarisation.
The next series has as its target T1, CBX7CD (Mus musculus, UniProt Q8VDS3).
T1 sequence (Q8VDS3 11-69 limits assumed): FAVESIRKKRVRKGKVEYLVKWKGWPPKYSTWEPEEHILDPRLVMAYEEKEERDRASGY
In kind it is binding. Conditions: fluorescence anisotropy, fluorescein-labeled peptide; measured in triplicate.

The subject of series [3] is CBX7 at INK4b/ARF/INK4a locus, PC3 cells. Description: ChIP of CBX7 occupation in PC3 cells treated with α-amanitin. The series is classed as cell-based, human. The conditions noted are these: whole PC3 cell treatment, 10 μg/ml, relative to histone H3.
Series [4] deals with RNA Pol II (ANRIL transcription), PC3 nuclei. Description: In vitro transcription of ANRIL from PC3 whole nuclei. In kind it is cell-based, human. Conditions: [α-32P]-UTP incorporation.
Series [5] concerns INK4b/ARF/INK4a locus, PC3 cell nuclei. Description: Quantitative ChIP of PC3 nuclei after RNase A. In kind it is cell-based, human.
Another series has as its target T2, CBX7 chromodomain ( (human or mouse cDNA cloned), UniProt Q8VDS3 1-71).
T2 sequence: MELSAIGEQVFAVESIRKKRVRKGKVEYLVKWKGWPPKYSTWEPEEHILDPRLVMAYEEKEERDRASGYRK
Description: fluorescence polarisation.

The mark [6] stands for this setting: RNase A treatment of PC3 cell nuclei.

For ANRIL loop A RNA, the equilibrium dissociation constant (Kd) in series [1] came out at 13.7 µM.

Regarding ANRIL loop B RNA, the dissociation constant Kd in series [1] worked out at 30.2 µM.

As for ANRIL loop C RNA, the Kd in series [1] was determined as 14.6 µM.

Regarding “CBX7 chromodomain (from UniProt Q8VDS3 1-71) (domain or fragment)”, the dissociation constant Kd in series [2] is 16.5 µM.

In the series with CBX7CD, “H3K9me3: H3K9me3 peptide (histone H3 methylated at lysine 9)” yielded an equilibrium dissociation constant (Kd) of 16.5 ± 0.8 µM.

On to α-amanitin, for which, in series [3], the “CBX7 levels (ChIP)” value was “depleted levels of CBX7”. In addition, the “sensitivity of nascent ANRIL transcription” value in series [4] is on record as “shows sensitivity to α-amanitin”.

B1: RNase A: ribonuclease A (protein, UniProt P61823 27-150, looked up)
Ribonuclease pancreatic: KETAAAKFERQHMDSSTSAASSSNYCNQMMKSRNLTKDRCKPVNTFVHESLADVQAVCSQKNVACKNGQTNCYQSYSTMSITDCRETGSSKYPNCAYKTTQANKHIIVACEGNPYVPVHFDASV
For the molecule B1, in series [5] (setting [6]), the “site occupation by CBX7, PHC2, Bmi1 and Suz12” value is “dramatically reduced”; the “total levels of H1 and H3” value is recorded as “remained about the same”. Further, in series [5] (RNase A treatment, at CBX7 occupation sites), the “levels of trimethylated H3K27 and ubiquitinated H2AK119” value is “greatly reduced”.

B2: fluorescein-labeled H3K27me3 peptide (peptide)
chain: APRKQLATKAARK(Me3)SAP
modifications: also: fluorescein label (position not given here)
The molecule B2 registered a Kd with CBX7 chromodomain of 59 ± 4.7 µM.
